Source: the DeepSol protein solubility set

Assay: soluble on expression in E. coli; label from the status in PepcDB or PDB records

| Sequence | soluble on expression in E. coli |
| --- | --- |
| MNHAQSLYPLIERALLCPVLEDKLALAERLHRDWRAGMLARLASPAPYPLPEPGRPERPELVHPARVPKRSLSTRRGHGALLHAIAHIEFNAVNLALDAAWRFRDMPDEFVDDWLKVAAEEAGHFRLLQGRLAELGFSYGDFPAHDGLWAMCRKTDRDAMVRMALVPRVLEARGLDVTPGIQRRLAGIGDHASVAVLDVILRDEVGHVLIGNRWFVRLCRERGLEPQATFRGLLEQHAMQLHPGDYNLDARAAAGFFADELEALARLTESVSDGRLEHHHHHH | soluble |
| MGSDKIHHHHHHMSNQKIIRLSPNPQDFGHDCDDLDPQMFASELPVQHTHVYYEDDNLGLYIGVWDTSTMVEAAAPSPCDEFMYLLEGEVEIKNSKTGTMEKVQAGEAFVIPKGYDCQWHQTGYLRKFFVISEHPKEDIPTTPVVEGIIKLKVNNSSQMAIEDSTGVEIEPTNTPFVIKGKEPAQKHLPSYKDHTGKFIAGTWHSEAFNSEMQPFPRNEFIYLQSGSLVITEQEGDEQVFTAGDAFFVPQGALCSWRSIGDVHTFYAILQSS | not soluble |
| VGLGNLKTYGGLRQGSQSYNIDRLKKYLYYGDGTYDDLVNTLLNEAMNDQLESFASFYRGKKLYELPRGWPEIPAKRQR | not soluble |
| GPGSMEQGAFNDVAKKALEFRNRYYKMLDDPQDRLNVAGLYAPDVPMVCEWNGHPLSTVDDVRNYISALPKTSHQVDMVDAQPLPDNQDGDSFLLTVHGIVTYNDEHRREFYQRMVIRRFEQRYYILNDYYRWLSERSQ | soluble |
| MNDIWWQTYGEGNCHLVLLHGWGLNAEVWHCIREELGSHFTLHLVDLPGYGRSSGFGAMTLEEMTAQVAKNAPDQAIWLGWSLGGLVASQMALTHPERVQALVTVASSPCFSAREGWPGIKPEILGGFQQQLSDDFQRTVERFLALQTLGTETARQDARTLKSVVLAQPMPDVEVLNGGLEILKTVDLREALKNVNMPFLRLYGYLDGLVPRKIVPLLDTLWPHSTSQIMAKAAHAPFISHPAAFCQALMTLKSSL | not soluble |
| MGSDKIHHHHHHMTKFIVDSSYWNLFPTSKIGVILIKDYHMDRNLETELKQLLSDSHSLAKKYLQEKEFSQNRVIQTYRKAYQTFKTKKGARSSIEALLKRVNSGNEITSINPLVDIYNAASLRFGLPIGAEDSDTFRGDLKLTITNGGDEFYLIGEDFNRPTLSGELAYVDDVGAVCRCFNWRDGKRTMITDNTQNAFLVIELIDNGREIIFKEALDFIATNTNRFLKAKTQTIILDKEHSEITL | not soluble |
| MLSGDLAEFPFPSLVGALMSAGRTGRLHLRPPFLEAEVYLRGGQVVHAKAQAGERALEGEEALDLLVGLRRAPFVFEPEALPPHTTLLGGLEVPARLAQAQAAWEKVKLPADWGLRLRLPREGSAVELPPEALGLLARVEGKRIAEVLLAPGVLRQARVLSTLLEVGALEAYPEVDLPPEPLVVLPIYGPGSGVAYVDEALYAQWARAIRRGFRVRLLPLGAVLEVRPRPNLQGRVGLMEEDLKRLRLRRGDKVEAVPKV | soluble |
| MSLAPRLKLRDITFFERPVQFARPFRFGAITINATTQLFVRVEIEVEGRGSAVGASAELLVPKWFDKRPEFSPAQTVDGLRRSLEIARGLYLARTGFLTAFDLHAACIGAQIATCAKKNIPALAAAYGLAEIDKAILDALLRGVETGFFDGMAGNVAGIDARLSPDLKDAEIAAFLSSRKPLPRVAIRHTVDLDDTVEGKGGVADAHENAGASYFKLKLRGDPAADAARLARIGKELDTLGRSYKVTLDANEQYADLAALQALMDRLDHDSDLRPIASRLLYVEQPMPRDITRQSPLGSLAARGFIIDEADDSYDAFPAARALGYHGISSKSCKGLYKSIVSATRAAKWSGGGEKFFVTGEDLTCQAGLAVQQDLALGAFLGVTHAERNGHHYVDGFGDTPAAEAAAFAAAHPDLYADAGQGIRLSIHDGDLLTGSLHAAGFATSVHPDWSALRPLEQPTSLQEQLAEGHHHHHH | soluble |
| MGLSDEQLGKIVRFHLKEDKQAHERIKQKMMESMKAFRKAVGEPATDDETLRKLGQAHIDSFNEMVKYHIDERKAVRSILTPEQIGKLEHHHHHH | not soluble |
| MSHYDILQAPVISEKAYSAMERGVYSFWVSPKATKTEIKDAIQQAFGVRVIGISTMNVPGKRKRVGRFIGQRNDRKKAIVRLAEGQSIEALAGQA | soluble |
| MSLAAGFAPLADIPVGPDYVIGPGDRIILNLWGSAEGTHELEVNRSGEIVLPRVGSVKVWGITFERLPEVLKTHLSKIYKNFDLNVTMGKLRVIKVYVVGEVKMPGDYNLSPLSTLINALAASGGPLKTGTLRNIKIKRGGKVVETVDLYDFFLKGDKGKDIRLQPGDTIFVPVIGRVAGIAGNVKRPAIYELKDEKNLGDLVELAEGFLPTGYLQRVQITRVDAHDKRMVADFNIDPKGAGEGHHHHHH | not soluble |
| METLSDVFATFSQRGDTTAFVHRTGVRRYVFTYLDLHALSLRMNRWLADQGVGEGDRVVLWGPNSPWWAVAFWGIVTRGAVAVPVDFMSGAERAEIIAGLTDAKLVIQSRDKLDRLTGRPSVLLEELGFLLEAVEPLATTHRPAPDDMAELIYTSGTTGNPKGVILTHRNLVANILQVNRHIPVVTPDFSFLSLLPLSHMFEQMGGFFTPLYRGAAIVYIRTLKPSAIMEALGEEDIYAIIAVPRLLQLLKGSVERELEAKGLGSIFRWLLKVGERMSRGGRSVLFRPIQRKFGRNFALFVSGGAPLDPEVFRFWNGLGFRVVEGYGLTECSPVLTANTMERQVMGSVGTPLDGVELRLEEGEILARGDNIFPGYFRNEEATRGAFVDGWFRTGDLGELDPDGWLRIKGRSKELIVTGAGVNVYPDEIEAILNRTQGVREGCVIGLDRGKGEEVHGVLILDGSGRPTEEIVNEVNAKFDELHRITSFSVWPEAEFPKTTTLKIRKFQVKERIEQGGGALGDGRGADRLTALVATITGSPLEQVTEGALLVNDLGLTSIARLELVNALEMEFRLDLEDSVIGPQTRVADLREIVSRREKVHIREHFRIWAMGGVALAVRRLLDTVLHGPLLRAFVTLKSLGIENLEAADGPVMFVSNHLSYLDQPAIMCVLPDAWRYNTATAAWEEFFFRNFKNLPQRLWKRFTYEYASVAFTVFPLPQSRGFRGALHFMGTLADQGMNILLFPEGERSRDGRLLPFQQGLGVMIRELGVPVVPVRIRGLEKVLPRGASWPQKGEVSITFGKPIHFRGESPTEIVDRARRAVEDLLEHHHHHH | not soluble |
| PQPSRPRKGSLGFGPRKRSTSETPRFNSWPSDDGQPGVQGFAGYKAGMTHVVLVNDEPNSPREGMEETVPVTVIETPPMRAVALRAYEDTPYGQRPLTEVWTDEFHSELDRTLDVPEDHDPDAAEEQIRDAHEAGDLGDLRLITHTVPDAVPSVPKKKPDVMETRVGGGSVSDRLDHALDIVEDGGEHAMNDIFRAGEYADVAGVTKGKGTQGPVKRWGVQKRKGKHARQGWRRRIGNLGPWNPSRVRSTVPQQGQTGYHQRTELNKRLIDIGEGDEPTVDGGFVNYGEVDGPYTLVKGSVPGPDKRLVRFRPAVRPNDQPRLDPEVRYVSNESNQG | soluble |
| MDVSLPCIKIQVQTRYIEEQSNPEYQRFVFAYLITIKNLSSQTVQLMSRRWLITDADGKQTVVEGDGVVGEQPRIKANDEYTYSSGTALDTPVGVMQGQYLMIDEQGESFTVEIEPFRLAVPHVLNLEHHHHHH | soluble |
| MGSDKIHHHHHHMYKRNERLNLIRKRVDQYGQVAVKDLAIFLQVTPETVRKDLETLENDKLITRTHGGAIQYNHINKEKSYANKWQKQSQVKERIAKKAALQIKSGEIIVIDGGTTTGRIPQYLNDITQTTIVTNSLKIADELNRAIEEQRIQAEVIMLAGKTNTEQDVVRGHMTNELLQRFKFDKAFISCGSFDTSDCYEFDLEEAHASHIMIQKSQLSYLLADSSKRDAHASYRIDGFSEIDYMISDYAKPQNIEYFNQKHWLQI | not soluble |
| TEHLTLAFKIERPYDKVLKTISKKNLKNYIKETFNFFKSGYMKQNYLGSENDVIELDDVANIMFYGEGEVGDNHQKFMLIFDTGSANLWVPSKKCNSSGCSIKNLYDSSKSKSYEKDGTKVDITYGSGTVKGFFSKDLVTLGHLSMPYKFIEVTDTDDLEPIYSSVEFDGILGLGWKDLSIGSIDPIVVELKNQNKIDNALFTFYLPVHDVHAGYLTIGGIEEKFYEGNITYEKLNHDLYWQIDLDVHFGKQTMEKANVIVDSGTTTITAPSEFLNKFFANLNVIKVPFLPFYVTTCDNKEMPTLEFKSANNTYTLEPEYYMNPILEVDDTLCMITMLPVDIDSNTFILGDPFMRKYFTVFDYDKESVGFAIAKN | soluble |
| QAGFNDLFTINNTPAKTATEIYLENFPEQRNPLKSTGVNIVFKAPEGHTLAEPENKAAMDSVVQAIQDNLEGLTNTQRFGNPVELNPKLQQGVIDLMTQRGVPEENARADAANLSLITPDETIGYTTFDIDVPMPADVSDAQRQAITDAMNLGREKGLTVEAGGAGFGDPIVIEETSE | not soluble |
| MWSEYSLEVVDAVARNGSFSAAAQELHRVPSAVSYTVRQLEEWLAVPLFERRHRDVELTPAGVWFLQEGRSVIKKMQITRQQCQQIANGWRGQLSIAVDDIVKPARMRQMIVDFYRHFPDVELIVFQEVFNGVWDALADGRVELAIGATRSIPVGGRYAFRDMGMLSWDCVVASDHPLAKMEGPLSDDVLRNWPSLVREDTSRSLPKRTTWLLDNQKRVVVPDWESSATCLSAGLCVGMVPSHFARPWIDRGEWTALALENPFPDAACCLTWQQNDASPALNWMLDYLGDSDTLNREWLRAPERSAPARCLNDDNRQTGHPLPSGAQPDGGALR | not soluble |
| MGSDKIHHHHHHMQDDRLFPYGHARGAGWREALSSALEMAGPRVRGGTLGFLYVTDSFESDLPDILSAVREQTGVPHWTGCVGAGICATAQEYLDEPALAFMVTDFPETEFRLFAGMGPYRTGKSWPTGPGRPPYFAIVHGDSQTPDLPDLVRDFAGQMGSGFITGGICSSRTDGAQLVDEVVHGGLSGVTFSENIAVATRLTQGCSPIGPIHHINEAHNNVISRLDDRPALDVFNDETCDILSRDLQRAAGFIFVAMPVKNDDRGDYMVRTLVGIDIERKLLAIGEYAEAGQSLMFCKRDSGTAGEDLERMLSDISRLADGRKIRGGLYFTCVWRGQNLFGPDSAELRMIRDGLGDFPLVGFFANAEISHDKIYGYTGVLTLFLDAPTS | not soluble |
| MQRIRIIDSHTGGEPTRLVIGGFPDLGQGDMAERRRLLGERHDAWRAACILEPRGSDVLVGALLCAPVDPEACAGVIFFNNSGYLGMCGHGTIGLVASLAHLGRIGPGVHRIETPVGEVEATLHEDGSVSVRNVPAYRYRRQVSVEVPGIGRVSGDIAWGGNWFFLVAGHGQRLAGDNLDALTAYTVAVQQALDDQDIRGEDGGAIDHIELFADDPHADSRNFVLCPGKAYDRSPCGTGTSAKLACLAADGKLLPGQPWRQASVIGSQFEGRYEWLDGQPGGPIVPTIRGRAHVSAEATLLLADDDPFAWGIRR | soluble |
| VAKMRFIDIGANLLDEMYTGQYNDKPYHPPDLSAVLERAWAAGLEKLMITAGSLKEARAALELAKTDERLYCTVGCHPTRCKEFEDHPGGPEAYLQELLEVLKEGQALGKVVAVGECGLVATDYERLHFCDADTQKKYFEAQFRLAKESGLPMFLHLRAAADDFLDITGRHLGDFPRGGVVHSFDGTAEEAARVLAVPQLAIGINGCSLKTDDNLAVVGGLPLERIMLETDCPWCEIRPTHAGRKHVSAEALAGVTGAKDRKKFMPGCQVKSRNEPANIRQVLEVVAGVKGRTDLEAVADVIFGNTERMFFPTA | not soluble |
| MSKRNTPQRRHNILALLNEQGEVSVDELAKRFETSEVTIRKDLAALESNGLLLRRYGGAITMPQELVSDIGQPVSLYKQAIARAAVQRIREHARIIIDSGSTTAAMIPELGLQPGLVVMTNSLNVANALSELEHEPVLLMTGGTWDPHSESFQGQVAEQVLRSYDFDQLFIGADGIDLARGTTTFNELLGLSRVMAEVAREVVVMVESDKIGRKIPNLELPWSSVHTLITDDRLPLEVRDQIQARGITLICAAVSLEHHHHHH | soluble |
